Results: publication PMC314469, “Protein Interaction Networks by Proteome Peptide Scanning” (PLoS Biology, 2004)

T1: Abp1 SH3 (ABP1_YEAST), P15891
T1 chain: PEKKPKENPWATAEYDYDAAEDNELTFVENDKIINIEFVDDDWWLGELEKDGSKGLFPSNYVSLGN


Target: T1, Abp1 SH3 (ABP1_YEAST), P15891
Test: SPOT array

| Binder | normalised SPOT signal, Boehringer light units (BLU); mean over the file's lines of this peptide |
| --- | --- |
| ESFRERPLEPPRKP [YDR448W 139-152] | 675 |
| ESASHETPTDLRP [YKL204W 262-274] | 147 |
| FSYPISSPINFKP [YPR164W 96-108] | 115 |
| ESFSSGSLSPPSRP [YDR348C 88-101] | 48.8 |
| FASKVNYPVLIRP [YJR109C 723-735] | 156 |
| ERRKQLKKQGPKRP [YKL032C 351-364] | 77.9 |
| FFPNVNSPSVNKP [YNR045W 370-382] | 101 |
| ESLNLQFQAHPPKP [YKR050W 395-408] | 27.2 |
| ETGVSIKNPRPSRP [YPR096C 4-17] | 615 |
| ERLQSQPPRPPRP [YGR268C 21-33] | 10400 |
| EVRKVYIPKVVKP [YJR143C 526-538] | 250 |
| ERPLPDLPSTIKP [YKR027W 750-762] | 106 |
| FDIVFPAPKGKRP [YBR034C 258-270] | 284 |
| FEMVTEVPIPRRP [YGR156W 132-144] | 526 |
| EQIVLGQPKTNRP [YDR062W 281-293] | 87.7 |
| ETVTNSGGLQPLKP [YOR329C 474-487] | 54.3 |
| ESKLSSLIIPPSKP [YJL193W 97-110] | 105 |
| EQEEFTSPYFGRP [YIL031W 818-830] | 67.4 |
| EQAPTGLVLEPSKP [YBR284W 656-669] | 51.6 |
| FAEKVGYPVLVRP [YJL130C 1124-1136] | 85.3 |
| EVPMFVNPANAKP [YHL038C 181-193] | 70.8 |

| Binder | normalised SPOT signal, Boehringer light units (BLU); mean over the file's lines of this peptide |
| --- | --- |
| FEKGPRMPSRGRP [YPR171W 143-155] | 2280 |
| FDGKPTATPSPFRP [YMR153W 197-210] | 101 |
| EYLDQKNPQKEKP [YDR293C 662-674] | 52.7 |
| EVRDLWLSILPTKP [YBR115C 851-864] | 86.6 |
| ERSKNLIPPAFRP [YGL173C 598-610] | 488 |
| ERLERQFEEVPFRP [YPL027W 171-184] | 201 |
| FEEPEDFLPPPPKP [YLR285W 14-27] | 55.3 |
| EVVKILRESNPPRP [YJR010W 379-392] | 39.2 |
| ESLKLYYRHRPQKP [YOL164W 141-154] | 146 |
| FDKKNETPRKRKP [YBL046W 314-326] | 173 |
| ETQPIQNFQPPPKP [YBR108W 650-663] | 82.5 |
| ESKMSLAPHEYKP [YGR097W 219-231] | 97.4 |
| FDSQFSAPFNGRP [YBL014C 791-803] | 168 |
| FASDSLLDLSPIKP [YCL018W 111-124] | 73.8 |
| EQKLPTALLSPLRP [YCL051W 196-209] | 126 |
| ESIDASKPEKVKP [YFL025C 369-381] | 132 |
| FDYIVTREFRPTKP [YOR131C 125-138] | 83.2 |
| EYGHHARPDSKRP [YMR268C 2-14] | 61.2 |
| ETLWDLPPKFPEKP [YDR444W 182-195] | 55.6 |
| EYKYSRPPYNFKP [YBR043C 498-510] | 155 |
| ETELGHVPLVERP [YDL079C 472-484] | 136 |
